Laboratory results as given in US20140294898A1 (published 2014).
Positions of bridges follow the written chain, without caps; N, C: chain ends. Non-standard residues stand in square brackets, D forms with d. Phe(4-CF3) = N[C@@H](Cc1ccc(C(F)(F)F)cc1)C(=O)O; Phe(4-tBu) = CC(C)(C)c1ccc(C[C@H](N)C(=O)O)cc1; Bip = N[C@@H](Cc1ccc(-c2ccccc2)cc1)C(=O)O; Phe(4-Br) = N[C@@H](Cc1ccc(Br)cc1)C(=O)O; 1Nal = N[C@@H](Cc1cccc2ccccc12)C(=O)O; 2Nal = N[C@@H](Cc1ccc2ccccc2c1)C(=O)O; 3Pal = N[C@@H](Cc1cccnc1)C(=O)O; NMeNle = CCCC[C@H](NC)C(=O)O; NMeV = CN[C@H](C(=O)O)C(C)C; NMeA = CN[C@@H](C)C(=O)O; Sar = CNCC(=O)O

B1: Compound No. 34 (peptide)
peptide: {CH2CO}-[Phe(4-Br)][NMeA]NPHL[Sar]WSW[NMeNle][NMeNle]RCG-NH2
modifications: thioether N-14
SMILES: CCCC[C@H]1C(=O)N(C)[C@@H](CCCC)C(=O)N[C@@H](CCCNC(=N)N)C(=O)N[C@H](C(=O)NCC(N)=O)CSCC(=O)N[C@@H](Cc2ccc(Br)cc2)C(=O)N(C)[C@@H](C)C(=O)N[C@@H](CC(N)=O)C(=O)N2CCC[C@H]2C(=O)N[C@@H](Cc2c[nH]cn2)C(=O)N[C@@H](CC(C)C)C(=O)N(C)CC(=O)N[C@@H](Cc2c[nH]c3ccccc23)C(=O)N[C@@H](CO)C(=O)N[C@@H](Cc2c[nH]c3ccccc23)C(=O)N1C
B2: Compound No. 26 (peptide)
peptide: {CH2CO}-[2Nal][NMeA]NPHL[Sar]WSW[NMeNle][NMeNle]RCG-NH2
modifications: thioether N-14
SMILES: CCCC[C@H]1C(=O)N(C)[C@@H](CCCC)C(=O)N[C@@H](CCCNC(=N)N)C(=O)N[C@H](C(=O)NCC(N)=O)CSCC(=O)N[C@@H](Cc2ccc3ccccc3c2)C(=O)N(C)[C@@H](C)C(=O)N[C@@H](CC(N)=O)C(=O)N2CCC[C@H]2C(=O)N[C@@H](Cc2c[nH]cn2)C(=O)N[C@@H](CC(C)C)C(=O)N(C)CC(=O)N[C@@H](Cc2c[nH]c3ccccc23)C(=O)N[C@@H](CO)C(=O)N[C@@H](Cc2c[nH]c3ccccc23)C(=O)N1C
B3: Compound No. 12 (peptide)
peptide: {CH2CO}-F[NMeA]NPHLGWSW[NMeNle][NMeNle]RCG-NH2
modifications: thioether N-14
SMILES: CCCC[C@H]1C(=O)N(C)[C@@H](CCCC)C(=O)N[C@@H](CCCNC(=N)N)C(=O)N[C@H](C(=O)NCC(N)=O)CSCC(=O)N[C@@H](Cc2ccccc2)C(=O)N(C)[C@@H](C)C(=O)N[C@@H](CC(N)=O)C(=O)N2CCC[C@H]2C(=O)N[C@@H](Cc2c[nH]cn2)C(=O)N[C@@H](CC(C)C)C(=O)NCC(=O)N[C@@H](Cc2c[nH]c3ccccc23)C(=O)N[C@@H](CO)C(=O)N[C@@H](Cc2c[nH]c3ccccc23)C(=O)N1C
B4: Compound No. 35 (peptide)
peptide: {CH2CO}-[Phe(4-CF3)][NMeA]NPHL[Sar]WSW[NMeNle][NMeNle]RCG-NH2
modifications: thioether N-14
SMILES: CCCC[C@H]1C(=O)N(C)[C@@H](CCCC)C(=O)N[C@@H](CCCNC(=N)N)C(=O)N[C@H](C(=O)NCC(N)=O)CSCC(=O)N[C@@H](Cc2ccc(C(F)(F)F)cc2)C(=O)N(C)[C@@H](C)C(=O)N[C@@H](CC(N)=O)C(=O)N2CCC[C@H]2C(=O)N[C@@H](Cc2c[nH]cn2)C(=O)N[C@@H](CC(C)C)C(=O)N(C)CC(=O)N[C@@H](Cc2c[nH]c3ccccc23)C(=O)N[C@@H](CO)C(=O)N[C@@H](Cc2c[nH]c3ccccc23)C(=O)N1C
B5: Compound No. 19 (peptide)
peptide: FANPHLGWSWAXRCG
HELM: PEPTIDE1{[O=C(C[*:3])[*:2]].F.[meA].N.P.H.L.[Sar].W.S.W.[meA].[CCCC[C@@H](C(=O)[*:2])N(C)[*:1]].R.C.G.[am]}$PEPTIDE1,PEPTIDE1,1:R3-15:R3$$$V2.0
SMILES: CCCC[C@H]1C(=O)N[C@@H](CCCNC(=N)N)C(=O)N[C@H](C(=O)NCC(N)=O)CSCC(=O)N[C@@H](Cc2ccccc2)C(=O)N(C)[C@@H](C)C(=O)N[C@@H](CC(N)=O)C(=O)N2CCC[C@H]2C(=O)N[C@@H](Cc2c[nH]cn2)C(=O)N[C@@H](CC(C)C)C(=O)N(C)CC(=O)N[C@@H](Cc2c[nH]c3ccccc23)C(=O)N[C@@H](CO)C(=O)N[C@@H](Cc2c[nH]c3ccccc23)C(=O)N(C)[C@@H](C)C(=O)N1C
B6: Compound No. 24 (peptide)
peptide: {CH2CO}-F[NMeA]NPHL[Sar]WSW[NMeNle][NMeNle]RC-NH2
modifications: thioether N-14
SMILES: CCCC[C@H]1C(=O)N(C)[C@@H](CCCC)C(=O)N[C@@H](CCCNC(=N)N)C(=O)N[C@H](C(N)=O)CSCC(=O)N[C@@H](Cc2ccccc2)C(=O)N(C)[C@@H](C)C(=O)N[C@@H](CC(N)=O)C(=O)N2CCC[C@H]2C(=O)N[C@@H](Cc2c[nH]cn2)C(=O)N[C@@H](CC(C)C)C(=O)N(C)CC(=O)N[C@@H](Cc2c[nH]c3ccccc23)C(=O)N[C@@H](CO)C(=O)N[C@@H](Cc2c[nH]c3ccccc23)C(=O)N1C
B7: Compound No. 21 (peptide)
peptide: FANPHLGWSWXARCG
HELM: PEPTIDE1{[O=C(C[*:3])[*:2]].F.[meA].N.P.H.L.[Sar].W.S.W.[CCCC[C@@H](C(=O)[*:2])N(C)[*:1]].[meA].R.C.G.[am]}$PEPTIDE1,PEPTIDE1,1:R3-15:R3$$$V2.0
SMILES: CCCC[C@H]1C(=O)N(C)[C@@H](C)C(=O)N[C@@H](CCCNC(=N)N)C(=O)N[C@H](C(=O)NCC(N)=O)CSCC(=O)N[C@@H](Cc2ccccc2)C(=O)N(C)[C@@H](C)C(=O)N[C@@H](CC(N)=O)C(=O)N2CCC[C@H]2C(=O)N[C@@H](Cc2c[nH]cn2)C(=O)N[C@@H](CC(C)C)C(=O)N(C)CC(=O)N[C@@H](Cc2c[nH]c3ccccc23)C(=O)N[C@@H](CO)C(=O)N[C@@H](Cc2c[nH]c3ccccc23)C(=O)N1C
B8: Compound No. 37 (peptide)
peptide: {CH2CO}-[Phe(4-tBu)][NMeA]NPHL[Sar]WSW[NMeNle][NMeNle]RCG-NH2
modifications: thioether N-14
SMILES: CCCC[C@H]1C(=O)N(C)[C@@H](CCCC)C(=O)N[C@@H](CCCNC(=N)N)C(=O)N[C@H](C(=O)NCC(N)=O)CSCC(=O)N[C@@H](Cc2ccc(C(C)(C)C)cc2)C(=O)N(C)[C@@H](C)C(=O)N[C@@H](CC(N)=O)C(=O)N2CCC[C@H]2C(=O)N[C@@H](Cc2c[nH]cn2)C(=O)N[C@@H](CC(C)C)C(=O)N(C)CC(=O)N[C@@H](Cc2c[nH]c3ccccc23)C(=O)N[C@@H](CO)C(=O)N[C@@H](Cc2c[nH]c3ccccc23)C(=O)N1C
B9: Compound No. 28 (peptide)
peptide: {CH2CO}-[Bip][NMeA]NPHL[Sar]WSW[NMeNle][NMeNle]RCG-NH2
modifications: thioether N-14
SMILES: CCCC[C@H]1C(=O)N(C)[C@@H](CCCC)C(=O)N[C@@H](CCCNC(=N)N)C(=O)N[C@H](C(=O)NCC(N)=O)CSCC(=O)N[C@@H](Cc2ccc(-c3ccccc3)cc2)C(=O)N(C)[C@@H](C)C(=O)N[C@@H](CC(N)=O)C(=O)N2CCC[C@H]2C(=O)N[C@@H](Cc2c[nH]cn2)C(=O)N[C@@H](CC(C)C)C(=O)N(C)CC(=O)N[C@@H](Cc2c[nH]c3ccccc23)C(=O)N[C@@H](CO)C(=O)N[C@@H](Cc2c[nH]c3ccccc23)C(=O)N1C
B10: Compound No. 41 (peptide)
peptide: {CH2CO}-F[NMeV]NPHL[Sar]WSW[NMeNle][NMeNle]RCG-NH2
modifications: thioether N-14
SMILES: CCCC[C@H]1C(=O)N(C)[C@@H](CCCC)C(=O)N[C@@H](CCCNC(=N)N)C(=O)N[C@H](C(=O)NCC(N)=O)CSCC(=O)N[C@@H](Cc2ccccc2)C(=O)N(C)[C@@H](C(C)C)C(=O)N[C@@H](CC(N)=O)C(=O)N2CCC[C@H]2C(=O)N[C@@H](Cc2c[nH]cn2)C(=O)N[C@@H](CC(C)C)C(=O)N(C)CC(=O)N[C@@H](Cc2c[nH]c3ccccc23)C(=O)N[C@@H](CO)C(=O)N[C@@H](Cc2c[nH]c3ccccc23)C(=O)N1C
B11: Compound No. 43 (peptide)
peptide: {CH2CO}-F[NMeA]GPHL[Sar]WSW[NMeNle][NMeNle]RCG-NH2
modifications: thioether N-14
SMILES: CCCC[C@H]1C(=O)N(C)[C@@H](CCCC)C(=O)N[C@@H](CCCNC(=N)N)C(=O)N[C@H](C(=O)NCC(N)=O)CSCC(=O)N[C@@H](Cc2ccccc2)C(=O)N(C)[C@@H](C)C(=O)NCC(=O)N2CCC[C@H]2C(=O)N[C@@H](Cc2c[nH]cn2)C(=O)N[C@@H](CC(C)C)C(=O)N(C)CC(=O)N[C@@H](Cc2c[nH]c3ccccc23)C(=O)N[C@@H](CO)C(=O)N[C@@H](Cc2c[nH]c3ccccc23)C(=O)N1C
B12: Compound No. 38 (peptide)
peptide: {CH2CO}-[3Pal][NMeA]NPHL[Sar]WSW[NMeNle][NMeNle]RCG-NH2
modifications: thioether N-14
SMILES: CCCC[C@H]1C(=O)N(C)[C@@H](CCCC)C(=O)N[C@@H](CCCNC(=N)N)C(=O)N[C@H](C(=O)NCC(N)=O)CSCC(=O)N[C@@H](Cc2cccnc2)C(=O)N(C)[C@@H](C)C(=O)N[C@@H](CC(N)=O)C(=O)N2CCC[C@H]2C(=O)N[C@@H](Cc2c[nH]cn2)C(=O)N[C@@H](CC(C)C)C(=O)N(C)CC(=O)N[C@@H](Cc2c[nH]c3ccccc23)C(=O)N[C@@H](CO)C(=O)N[C@@H](Cc2c[nH]c3ccccc23)C(=O)N1C
B13: Compound No. 27 (peptide)
peptide: {CH2CO}-[1Nal][NMeA]NPHL[Sar]WSW[NMeNle][NMeNle]RCG-NH2
modifications: thioether N-14
SMILES: CCCC[C@H]1C(=O)N(C)[C@@H](CCCC)C(=O)N[C@@H](CCCNC(=N)N)C(=O)N[C@H](C(=O)NCC(N)=O)CSCC(=O)N[C@@H](Cc2cccc3ccccc23)C(=O)N(C)[C@@H](C)C(=O)N[C@@H](CC(N)=O)C(=O)N2CCC[C@H]2C(=O)N[C@@H](Cc2c[nH]cn2)C(=O)N[C@@H](CC(C)C)C(=O)N(C)CC(=O)N[C@@H](Cc2c[nH]c3ccccc23)C(=O)N[C@@H](CO)C(=O)N[C@@H](Cc2c[nH]c3ccccc23)C(=O)N1C

target: T1, hPDL1(19-239)-TVMV-His (human, UniProt Q9NZQ7 19-239); experiment: HTRF competition, PD-1-Ig binding to PD-L1-His
T1 construct: The text says amino acids 18-239, the construct name says 19-239; Expressed in HEK293T cells; Used at 10 nM final in the HTRF assay; also called PD-L1-His; PD-L1-TVMV-His
Procedure: All binding studies were performed in an HTRF assay buffer consisting of dPBS supplemented with 0.1% (w/v) bovine serum albumin and 0.05% (v/v) Tween-20. […] PD-L1 fusion proteins from either human, cynomologous macaques, or mouse were used. HTRF detection was achieved using europium crypate-labeled anti-Ig monoclonal antibody (1 nM final) and allophycocyanin (APC) labeled anti-His monoclonal antibody (20 nM final). Antibodies were diluted in HTRF detection buffer and 5 μl was dispensed on top of binding reaction. The reaction was allowed to equilibrate for 30 minutes and signal (665 nm/620 nm ratio) was obtained using an EnVision fluorometer. […]
HTRF Experiments were performed essentially as outlined supra. Variant macrocyclic peptides were created as outlined herein.

T1 sequence (Q9NZQ7 other isoform, or with tags, fused parts or gaps limits assumed): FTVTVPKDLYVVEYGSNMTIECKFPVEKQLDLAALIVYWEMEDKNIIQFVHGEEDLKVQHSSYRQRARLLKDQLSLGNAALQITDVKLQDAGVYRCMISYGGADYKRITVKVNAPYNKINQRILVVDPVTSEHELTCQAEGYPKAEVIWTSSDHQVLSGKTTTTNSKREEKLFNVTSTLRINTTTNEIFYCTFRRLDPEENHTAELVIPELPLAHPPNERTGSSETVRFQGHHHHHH

Row | IC50 [nM] | Binder
1 | 4 | B1
2 | 15 | B2
3 | 22 | B3
4 | 56 | B4
5 | 33 | B5
6 | 9 | B6
7 | 21 | B7
8 | 1270 | B8
9 | 117 | B9
10 | 921 | B10
11 | 554 | B11
12 | 46 | B12
13 | 20 | B13
